The text below walks through data of patent publication US20170087188A1, “WNT INDUCED MOTILITY AND ENHANCED ENGRAFTMENT OF CELLS” (OTTAWA HOSPITAL RESEARCH INSTITUTE, priority 2014, published 2017).

In one assay the target is Fzd7-YFP (CMV-Fzd7-EYFP). The assay is described as follows: cell-based or functional assay.
Assay [1] deals with Fzd7 (endogenous, mouse myogenic cells) (mouse) (UniProt Q61090). Briefly: cell-based or functional assay.

The substance Wnt7a (R&D Systems) (ligand) returned a cell polarization of Fzd7-YFP expressing C2C12 cells with Fzd7-YFP (CMV-Fzd7-EYFP) of 167 % increase. Also, in assay [1], the abundance of triangular polarized C2C12 cells amounted to 111 % increase, the directional persistence of satellite cells on single myofibers (time lapse imaging) stood at 36 % higher, the mean velocity of satellite cells on single myofibers (time lapse imaging) came to 31 % increase and the migration of C2C12 cells in scratch assay was determined as 443 % increase. This substance returned a migration of satellite cell derived mouse primary myoblasts in scratch assay in assay [1] of 136 % increase.
